Results on 78 variants are retold here after the RNAGym collection of RNA variant scans (doi:10.7554/elife.80360).

B1: CPEB3 Ribozyme (parent)
chain: GGGGGCCACAGCAGAAGCGUUCACGUCGCGGCCCCUGUCAGAUUCUGGUGAAUCUGCGAAUUCUGCUGU

The variants in this data set derive from B1. The data set is described as follows: self-cleavage, relative activity (ratio to wild type); higher = more cleavage; co-transcriptional.
On to GGGGGCCACAGCAGUAGCGUUCACGUCGCGGCCCCGGUCAGAUUCUGGUGAAUCUGCGAAUUCUGCUGU, for which the self-cleavage worked out at 0.181.
Consider GGGGGCCACAGCAGUAGCGUUCACGUCGCGGCCCCAGUCAGAUUCUGGUGAAUCUGCGAAUUCUGCUGU, for which the self-cleavage was found to be 0.194.
Regarding GGGGGCCACAGCAGACGCGUUCACGUCGCGGCCCCUGUCCGAUUCUGGUGAAUCUGCGAAUUCUGCUGU, the self-cleavage is 0.118.
On to GGGGGCCACAGCAGACGCGUUCACGUCGCGGCCCCUGUCUGAUUCUGGUGAAUCUGCGAAUUCUGCUGU, for which the self-cleavage turned out to be 0.0836.
For GGGGGCCACAGCAGUAGCGUUCACGUCGCGGCCCCUGUCAGAUUCUGGUGAAGCUGCGAAUUCUGCUGU, the self-cleavage worked out at 0.566.
Regarding GGGGGCCACAGCAGUAGCGUUCACGUCGCGGCCCCUGUCAGAUUCUGGUGAACCUGCGAAUUCUGCUGU, the self-cleavage worked out at 0.413.
With GGGGGCCACAGCAGUAGCGUUCACGUCGCGGCCCCUGUCAGAUUCUGGUGAAACUGCGAAUUCUGCUGU, the self-cleavage was found to be 0.468.
The figure for GGGGGCCACAGCAGUAGCGUCCACGUCGCGGCCCCUGUCAGAUUCUGGUGAAUCUGCGAAUUCUGCUGU is 0.592; for GGGGGCCACAGCAGUAGCGUGCACGUCGCGGCCCCUGUCAGAUUCUGGUGAAUCUGCGAAUUCUGCUGU it is 0.157; for GGGGGCCACAGCAGUAGCGCUCACGUCGCGGCCCCUGUCAGAUUCUGGUGAAUCUGCGAAUUCUGCUGU it is 0.211.
The figure for GGGGGCCACAGCAGUAGCGAUCACGUCGCGGCCCCUGUCAGAUUCUGGUGAAUCUGCGAAUUCUGCUGU is 0.106; for GGGGGCCACAGCAGUAGCGGUCACGUCGCGGCCCCUGUCAGAUUCUGGUGAAUCUGCGAAUUCUGCUGU it is 0.132; for GGGGGCCACAGCAGUAGCGUUCACGUCGCGGCCCCUGUCAGAUUCUGGUGAAUCUGCGAAUUCGGCUGU it is 0.549.
With GGGGGCCACAGCAGUAGCGUUCACGUCGCGGCCCCUGUCAGAUUCUGGUGAAUCUGCGAAUUCCGCUGU, the self-cleavage worked out at 0.654.
GGGGGCCACAGCAGUAGCGUUCACGUCGCGGCCCCUGUCAGAUUCUGGUGAAUCUGCGAAUUCAGCUGU: the self-cleavage was 0.683.
As for GGGGGCCACAGCAGUAGCGUUCACUUCGCGGCCCCUGUCAGAUUCUGGUGAAUCUGCGAAUUCUGCUGU, the figure is 0.148; as for GGGGGCCACAGCAGACGCGUUCACGUCGCGGCCCCUGUCAGAUUCUGGUGAUUCUGCGAAUUCUGCUGU, 0.249.
As to GGGGGCCACAGCAGACGCGUUCACGUCGCGGCCCCUGUCAGAUUCUGGUGACUCUGCGAAUUCUGCUGU, the self-cleavage was found to be 0.239.
Turning to GGGGGCCACAGCAGUAGCGUUCACGUCGCGGCCCCUGUCAGAUUCUGGUGAAUCUACGAAUUCUGCUGU, the self-cleavage worked out at 0.648.
Take GGGGGCCACAGCAGUAGCGUUCACGUCGCGGCCCCUGUCAGAUUCUGGUGAAUCUCCGAAUUCUGCUGU: the self-cleavage was 0.402.
For the variant GGGGGCCACAGCAGUAGCGUUCACGUCGCGGCCCCUGUCAGAUACUGGUGAAUCUGCGAAUUCUGCUGU, the self-cleavage amounted to 0.705.
Regarding GGGGGCCACAGCAGACGCGUUCACGUCGCGGCCCCUGUCAGAUUCUGGUGAAUCUGCGAGUUCUGCUGU, the self-cleavage was found to be 0.418.
As to GGGGGCCACAGCAGUAGCUUUCACGUCGCGGCCCCUGUCAGAUUCUGGUGAAUCUGCGAAUUCUGCUGU, the self-cleavage amounted to 0.127.
In the case of GGGGGCCACAGCAGUAGCGUUCACGUCGCGGCCCCUGUCAGAUUCUGGUGAAUCUGCGAAUUCUGCUGG, the self-cleavage was 0.998.
As for GGGGGCCACAGCAGUAGCGUUCACGUCGCCGCCCCUGUCAGAUUCUGGUGAAUCUGCGAAUUCUGCUGU, the figure is 0.287; as for GGGGGCCACAGCAGUAGCGUUCACGUCGCAGCCCCUGUCAGAUUCUGGUGAAUCUGCGAAUUCUGCUGU, 0.361; as for GGGGGCCACAGCAGUAGCGUUCACGUCGCUGCCCCUGUCAGAUUCUGGUGAAUCUGCGAAUUCUGCUGU, 0.184.
The figure for GGGGGCCACAGCAGUAGCGUUCACGUCGCGACCCCUGUCAGAUUCUGGUGAAUCUGCGAAUUCUGCUGU is 0.248.
As for GGGGGCCACAGCAGUAGCGUUCACGUCGCGUCCCCUGUCAGAUUCUGGUGAAUCUGCGAAUUCUGCUGU, the self-cleavage came to 0.205.
As to GGGGGCCACAGCAGUAGCGUUCACGUCGCGCCCCCUGUCAGAUUCUGGUGAAUCUGCGAAUUCUGCUGU, the self-cleavage worked out at 0.183.
Regarding GGGGGCCACAGCAGUAGCGUUCACGUCGCGGCCCCUGUCAGAUUCUGGCGAAUCUGCGAAUUCUGCUGU, the self-cleavage is 0.817.
With GGGGGCCACAGCAGUAGCGUUCACGUCGCGGCCCCUGUCAGAUUCUGGGGAAUCUGCGAAUUCUGCUGU, the self-cleavage stood at 0.884.
For GGGGGCCACAGCAGUAGCGUUCACGUCGCGGCCCCUGUCAGAUUCUGGAGAAUCUGCGAAUUCUGCUGU, the self-cleavage was 0.931.
Consider GGGGGCCACAGCAGUAGCGUUCACGUCGCGGCCCCUGUCAGAUUCUGGUGAAUCUGCGAAUUCUCCUGU, for which the self-cleavage was 0.433.
As for GGGGGCCACAGCAGACGCGUUCACGUCGCGGCCCCUGUCAGAUUCUGGUGAAUCUGCGGAUUCUGCUGU, the self-cleavage came to 0.287.
On to GGGGGCCACAGCAGUAGCGUUCACGUCGCGGCCCCUAUCAGAUUCUGGUGAAUCUGCGAAUUCUGCUGU, for which the self-cleavage is 0.219.
With GGGGGCCACAGCAGUAGCGUUCACGUCGCGGCCCCUCUCAGAUUCUGGUGAAUCUGCGAAUUCUGCUGU, the self-cleavage stood at 0.179.
With GGGGGCCACAGCAGUAGCGUUCACGUCGCGGCCCCUUUCAGAUUCUGGUGAAUCUGCGAAUUCUGCUGU, the self-cleavage amounted to 0.176.
As to GGGGGCCACAGCAGUAGCGUUCACGUCGCGGCCCCUGUCAGAUUCUAGUGAAUCUGCGAAUUCUGCUGU, the self-cleavage was determined as 0.95.
With GGGGGCCACAGCAGUAGCGUUCACGUCGCGGCCCCUGUCAGAUUCUCGUGAAUCUGCGAAUUCUGCUGU, the self-cleavage stood at 0.989.
On to GGGGGCCACAGCAGUAGCGUUCACGUCGCGGCCCCUGUCAGAUUCUUGUGAAUCUGCGAAUUCUGCUGU, for which the self-cleavage was 0.919.
Regarding GGGGGCCACAGCAGACGCGUUCACGUCGCGGCCCCUGUCAGAUUCUGGUGUAUCUGCGAAUUCUGCUGU, the self-cleavage worked out at 0.239.
With GGGGGCCACAGCAGACGCGUUCACGUCGCGGCCCCUGUCAGAUUCUGGUGGAUCUGCGAAUUCUGCUGU, the self-cleavage came to 0.33.
GGGGGCCACAGCAGACGCGUUCACGUCGCGGCCCCUGUCAGAUUCUGGUGCAUCUGCGAAUUCUGCUGU: the self-cleavage was 0.217.
On to GGGGGCCACAGCAGUAGCGUUCACGUCGCGGCCCCUGUCAGAUUCUGGUGAAUCUGCGAACUCUGCUGU, for which the self-cleavage came out at 0.686.
In the case of GGGGGCCACAGCAGUAGCGUUCACGUCGCGGCCCCUGUCAGAUUCUGGUGAAUCUGCGAAGUCUGCUGU, the self-cleavage turned out to be 0.854.
GGGGGCCACAGCAGACGCGUUCACGUCGCGGCCCCUGUCAGUUUCUGGUGAAUCUGCGAAUUCUGCUGU: the self-cleavage amounted to 0.102.
The figure for GGGGGCCACAGCAGACGCGUUCACGUCGCGGCCCCUGUCAGCUUCUGGUGAAUCUGCGAAUUCUGCUGU is 0.245; for GGGGGCCACAGCAGUAGCGUUCACGCCGCGGCCCCUGUCAGAUUCUGGUGAAUCUGCGAAUUCUGCUGU it is 0.634.
GGGGGCCACAGCAGUAGCGUUCACGACGCGGCCCCUGUCAGAUUCUGGUGAAUCUGCGAAUUCUGCUGU: the self-cleavage amounted to 0.34.
For the variant GGGGGCCACAGCAGUAGCGUUCACGGCGCGGCCCCUGUCAGAUUCUGGUGAAUCUGCGAAUUCUGCUGU, the self-cleavage came out at 0.424.
Take GGGGGCCACAGCAGUAGCGUUCACGUCGCGGCCCCUGUCAGAUUCUGGUGAAUCUGCAAAUUCUGCUGU: the self-cleavage came out at 0.754.
In the case of GGGGGCCACAGCAGUAGCGUUCACGUCGCGGCCCCUGUCAGAUUCUGGUGAAUCUGCUAAUUCUGCUGU, the self-cleavage is 0.963.
Turning to GGGGGCCACAGCAGUAGCGUUCACGUCGCGGCCCCUGUCAGAUUCUGGUGAAUCUGCCAAUUCUGCUGU, the self-cleavage stood at 0.821.
Consider GGGGGCCACAGCAGUAGCGUUCACGUCCCGGCCCCUGUCAGAUUCUGGUGAAUCUGCGAAUUCUGCUGU, for which the self-cleavage was found to be 0.206.
Turning to GGGGGCCACAGCAGUAGCGUUCACGUCUCGGCCCCUGUCAGAUUCUGGUGAAUCUGCGAAUUCUGCUGU, the self-cleavage worked out at 0.167.
With GGGGGCCACAGCAGUAGCGUUCACGUCGCGGCCCCUGUCAGAUUCUGGUGAAUCAGCGAAUUCUGCUGU, the self-cleavage stood at 0.412.
In the case of GGGGGCCACAGCAGUAGCGUUCACGUCGCGGCCCCUGUCAGAUUCUGGUGAAUCCGCGAAUUCUGCUGU, the self-cleavage was 0.418.
Turning to GGGGGCCACAGCAGACGCGUUCUCGUCGCGGCCCCUGUCAGAUUCUGGUGAAUCUGCGAAUUCUGCUGU, the self-cleavage worked out at 0.549.
As to GGGGGCCACAGCAGACGCGUUCCCGUCGCGGCCCCUGUCAGAUUCUGGUGAAUCUGCGAAUUCUGCUGU, the self-cleavage is 0.277.
Regarding GGGGGCCACAGCAGACGCGUUCGCGUCGCGGCCCCUGUCAGAUUCUGGUGAAUCUGCGAAUUCUGCUGU, the self-cleavage was determined as 0.0786.
For GGGGGCCACAGCAGUAGCGUUCACGUCGCGGCCCCUGUCACAUUCUGGUGAAUCUGCGAAUUCUGCUGU, the self-cleavage stood at 0.257.
Consider GGGGGCCACAGCAGUAGCGUUCACGUCGCGGCCCCUGUCAUAUUCUGGUGAAUCUGCGAAUUCUGCUGU, for which the self-cleavage is 0.378.
The figure for GGGGGCCACAGCAGUAGCGUUCACGUCGCGGCCCCUGUCAGAUUCUGGUGAAUCUGCGAAUUCUGCGGU is 0.87; for GGGGGCCACAGCAGUAGCGUUCACGUCGCGGCCCCUGUCAGAUUCUGGUGAAUCUGCGAAUUCUGCAGU it is 0.889; for GGGGGCCACAGCAGUAGCGUUCACGUCGCGGCCCCUGUCAGAUUCCGGUGAAUCUGCGAAUUCUGCUGU it is 0.848.
Turning to GGGGGCCACAGCAGUAGCGUUCACGUCGCGGCCCCUGUCAGAUUCUGGUCAAUCUGCGAAUUCUGCUGU, the self-cleavage was 0.795.
In the case of GGGGGCCACAGCAGUAGCGUUCACGUCGCGGCCCCUGUCAGAUUCUGGUUAAUCUGCGAAUUCUGCUGU, the self-cleavage amounted to 0.858.
GGGGGCCACAGCAGUAGCGUUCACGUCGCGGCCCCUGUCAGAUUCUGGUGAAUCUGCGAAUGCUGCUGU: the self-cleavage is 0.991.
With GGGGGCCACAGCAGUAGCGUUCACGUCGCGGCCCCUGUCAGAUUCUGGUGAAUCUGCGAAUCCUGCUGU, the self-cleavage was found to be 0.946.
GGGGGCCACAGCAGUAGCGUUCACGUCGCGGCCCCUGGCAGAUUCUGGUGAAUCUGCGAAUUCUGCUGU: the self-cleavage came out at 0.178.
For GGGGGCCACAGCAGUAGCGUUCACGUCGCGGCCCCUGACAGAUUCUGGUGAAUCUGCGAAUUCUGCUGU, the self-cleavage is 0.548.
On to GGGGGCCACAGCAGUAGCGUUCACGUCGCGGCCCCUGUCAGAUUCUGGUGAAUCUGCGAAUUCUGCUCU, for which the self-cleavage stood at 0.929.
The figure for GGGGGCCACAGCAGUAGCGUUCACGUCGCGGCCCCUGUCAGAUUCUGAUGAAUCUGCGAAUUCUGCUGU is 0.925; for GGGGGCCACAGCAGACGCGUUCACGUCGCGGCCCCUGUCAGAUUCUGGUGAAUCUGCGAAUUCUGCUGU it is 0.373; for GGGGGCCACAGCAGUAGCGUUCACGUCGCGGCCCCUGUCAGACUCUGGUGAAUCUGCGAAUUCUGCUGU it is 0.731.
Take GGGGGCCACAGCAGUAGCGUUCACGUCGCGGCCCCUGUCAGAGUCUGGUGAAUCUGCGAAUUCUGCUGU: the self-cleavage was 0.429.
On to GGGGGCCACAGCAGUAGCGUUCACGUCGCGGCCCCUGUCAGAAUCUGGUGAAUCUGCGAAUUCUGCUGU, for which the self-cleavage came to 0.479.
